This is an account of results in US20160015827A1 (BIOALLIANCE C V, published 2016).

Experiment [1] deals with T1, human folate receptor alpha (FRA) (human, UniProt P15328 25-234).
T1 construct: In the assays FRA is the endogenous protein on FRA-expressing human cancer cell lines (SK-OV-3, OVCAR-3, OVCAR-3B, NCI-H2110, NCI-H292); also called human FRA
The experiment in a line: flow cytometry on SK-OV-3 cells, 1.1 µg/mL. Here is the method:
(§1) 1×10⁵ cells were seeded per well in a v-bottomed 96-well plate and incubated with 50 μl of the unconjugated Abs or the ADCs at titrated concentrations or isotype control antibody human IgG at 10 μg/mL. After 60 minutes of incubation at 4° C., cells were washed once with 200 μl FACS buffer (1×PBS containing 1% FBS), stained with 50 μl of 1 μg/ml goat F(ab′)2-anti-human IgG (H+L)-RPE or goat anti-human IgG-RPE (SOUTHERN BIOTECH®, Cat. No. 2043-09 or 2040-09) in FACS buffer and then incubated at 4° C. for 30 min Cells were washed once with FACS buffer and analyzed by flow cytometer (BD LSR, BD Life Sciences).
(§2) The binding activities of site-specific conjugates of hLK26-Cys variants-Tap18Hr1 were evaluated by flow cytometric analysis in ovarian cancer SK-OV-3 and OVCAR-3B (Table 9-10) and lung cancer NCI-H2110 and NCI-H292 (Table 11-12) cells. The Mean fluorescence intensity (MFI) values in the tables represent binding activity of ADCs at tested concentration. […] The IgG4p variants-Tap18Hr1 conjugates also bind to all the FRA positive cancer cells tested here, but the fluorescent intensities were generally lower than those observed with IgG1 variants. This decrease in binding activity is likely attributed to IgG4 isotype rather than cysteine mutation. Overall, the site-specific conjugated hLK26-Cys variants retain antigen reactivity to the ovarian and lung cancer cells tested.
A general note: Flow cytometry measures light scatter and fluorescence of single cells or particles in a stream.

For experiment [2], the target named is T1, human folate receptor alpha (FRA). The experiment in a line: flow cytometry on OVCAR-3B cells, 1.1 µg/mL. The procedure: as §1, §2
Experiment [3] has the same target. The experiment in a line: flow cytometry on NCI-H292 cells, 3.3 µg/mL. The procedure: as §1, §2
The target is the same in experiment [4]. Nature of the experiment: flow cytometry on NCI-H2110 cells, 3.3 µg/mL. The procedure:
as §1, §2

T1 sequence (P15328 25-234 limits assumed): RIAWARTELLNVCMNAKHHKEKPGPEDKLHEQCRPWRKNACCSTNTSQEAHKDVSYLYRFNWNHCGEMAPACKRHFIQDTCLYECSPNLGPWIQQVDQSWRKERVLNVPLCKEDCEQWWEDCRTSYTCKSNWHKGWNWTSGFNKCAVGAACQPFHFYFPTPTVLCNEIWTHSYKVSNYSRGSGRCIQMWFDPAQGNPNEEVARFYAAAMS

B1: hLK26-T155C-IgG4p-Tap18Hr1 (antibody, name in EU numbering)
heavy: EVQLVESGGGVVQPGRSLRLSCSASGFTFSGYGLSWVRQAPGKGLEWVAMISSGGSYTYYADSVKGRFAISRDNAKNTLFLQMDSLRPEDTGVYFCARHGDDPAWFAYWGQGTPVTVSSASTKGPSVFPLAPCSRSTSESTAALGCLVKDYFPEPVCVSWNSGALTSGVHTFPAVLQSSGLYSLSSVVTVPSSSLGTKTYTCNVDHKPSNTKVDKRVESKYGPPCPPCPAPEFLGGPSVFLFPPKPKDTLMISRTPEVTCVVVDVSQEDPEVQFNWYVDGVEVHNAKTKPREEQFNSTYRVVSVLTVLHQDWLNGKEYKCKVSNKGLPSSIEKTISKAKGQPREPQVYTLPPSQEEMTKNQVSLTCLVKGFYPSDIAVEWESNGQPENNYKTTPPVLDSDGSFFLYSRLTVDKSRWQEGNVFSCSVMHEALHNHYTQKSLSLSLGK
light: DIQLTQSPSSLSASVGDRVTITCSVSSSISSNNLHWYQQKPGKAPKPWIYGTSNLASGVPSRFSGSGSGTDYTFTISSLQPEDIATYYCQQWSSYPYMYTFGQGTKVEIKRTVAAPSVFIFPPSDEQLKSGTASVVCLLNNFYPREAKVQWKVDNALQSGNSQESVTEQDSKDSTYSLSSTLTLSKADYEKHKVYACEVTHQGLSSPVTKSFNRGEC
modifications: Tap18Hr1 linker-drug on the introduced Cys 155 (EU numbering)
notes: Site-specific ADC
On to B1, for which the MFI in experiment [1] came to 1890 MFI; in experiment [2] it was 806 MFI; in experiment [3], 1180 MFI; in experiment [4] it was 494 MFI.

B2: hLK26-IgG1 (antibody)
heavy: not shown
light: DIQLTQSPSSLSASVGDRVTITCSVSSSISSNNLHWYQQKPGKAPKPWIYGTSNLASGVPSRFSGSGSGTDYTFTISSLQPEDIATYYCQQWSSYPYMYTFGQGTKVEIKRTVAAPSVFIFPPSDEQLKSGTASVVCLLNNFYPREAKVQWKVDNALQSGNSQESVTEQDSKDSTYSLSSTLTLSKADYEKHKVYACEVTHQGLSSPVTKSFNRGEC
notes: Humanized anti-FRA antibody, human IgG1 / kappa, unconjugated; also called naked Ab hLK26-IgG1; unconjugated hLK26-IgG1
For B2, the MFI in experiment [2] was 1150 MFI; in experiment [3], 1460 MFI.

B3: hLK26-T206C-IgG1-Tap18Hr1 (antibody, name in EU numbering)
heavy: not shown
light: DIQLTQSPSSLSASVGDRVTITCSVSSSISSNNLHWYQQKPGKAPKPWIYGTSNLASGVPSRFSGSGSGTDYTFTISSLQPEDIATYYCQQWSSYPYMYTFGQGTKVEIKRTVAAPSVFIFPPSDEQLKSGTASVVCLLNNFYPREAKVQWKVDNALQSGNSQESVTEQDSKDSTYSLSSTLTLSKADYEKHKVYACEVTHQGLSSPVCKSFNRGEC
modifications: Tap18Hr1 linker-drug on the introduced Cys 206 (EU numbering)
notes: Site-specific ADC with kappa light chain mutant
Turning to B3, the MFI came out at 1270 MFI in experiment [1] and 1180 MFI in experiment [4].

B4: hLK26-T155C-IgG1-Tap18Hr1 (antibody, name in EU numbering)
heavy: not shown
light: DIQLTQSPSSLSASVGDRVTITCSVSSSISSNNLHWYQQKPGKAPKPWIYGTSNLASGVPSRFSGSGSGTDYTFTISSLQPEDIATYYCQQWSSYPYMYTFGQGTKVEIKRTVAAPSVFIFPPSDEQLKSGTASVVCLLNNFYPREAKVQWKVDNALQSGNSQESVTEQDSKDSTYSLSSTLTLSKADYEKHKVYACEVTHQGLSSPVTKSFNRGEC
modifications: Tap18Hr1 linker-drug on the introduced Cys 155 (EU numbering)
notes: Site-specific ADC
On to B4, for which the MFI amounted to 2470 MFI in experiment [1], 1060 MFI in experiment [2], 1450 MFI in experiment [3] and 649 MFI in experiment [4].

B5: hLK26-S442C-IgG4p-Tap18Hr1 (antibody, name in EU numbering)
heavy: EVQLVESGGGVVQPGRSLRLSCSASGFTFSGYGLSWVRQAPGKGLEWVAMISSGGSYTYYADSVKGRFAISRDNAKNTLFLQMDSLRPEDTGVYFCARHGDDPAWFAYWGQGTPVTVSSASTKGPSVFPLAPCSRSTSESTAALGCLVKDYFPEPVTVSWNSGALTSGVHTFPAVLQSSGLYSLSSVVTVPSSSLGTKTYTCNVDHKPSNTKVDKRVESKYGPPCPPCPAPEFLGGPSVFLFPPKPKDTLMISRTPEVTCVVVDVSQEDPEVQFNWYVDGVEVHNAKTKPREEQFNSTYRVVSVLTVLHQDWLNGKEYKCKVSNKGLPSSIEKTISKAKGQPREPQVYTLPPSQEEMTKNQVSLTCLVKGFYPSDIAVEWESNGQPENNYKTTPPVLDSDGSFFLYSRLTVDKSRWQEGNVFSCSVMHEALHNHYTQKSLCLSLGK
light: DIQLTQSPSSLSASVGDRVTITCSVSSSISSNNLHWYQQKPGKAPKPWIYGTSNLASGVPSRFSGSGSGTDYTFTISSLQPEDIATYYCQQWSSYPYMYTFGQGTKVEIKRTVAAPSVFIFPPSDEQLKSGTASVVCLLNNFYPREAKVQWKVDNALQSGNSQESVTEQDSKDSTYSLSSTLTLSKADYEKHKVYACEVTHQGLSSPVTKSFNRGEC
modifications: Tap18Hr1 linker-drug on the introduced Cys 442 (EU numbering)
notes: Site-specific ADC
As for B5, the MFI in experiment [1] was determined as 1880 MFI; in experiment [2], 769 MFI; in experiment [3], 1090 MFI; in experiment [4], 479 MFI.

B6: hLK26-L201C-IgG4p-Tap18Hr1 (antibody, name in EU numbering)
heavy: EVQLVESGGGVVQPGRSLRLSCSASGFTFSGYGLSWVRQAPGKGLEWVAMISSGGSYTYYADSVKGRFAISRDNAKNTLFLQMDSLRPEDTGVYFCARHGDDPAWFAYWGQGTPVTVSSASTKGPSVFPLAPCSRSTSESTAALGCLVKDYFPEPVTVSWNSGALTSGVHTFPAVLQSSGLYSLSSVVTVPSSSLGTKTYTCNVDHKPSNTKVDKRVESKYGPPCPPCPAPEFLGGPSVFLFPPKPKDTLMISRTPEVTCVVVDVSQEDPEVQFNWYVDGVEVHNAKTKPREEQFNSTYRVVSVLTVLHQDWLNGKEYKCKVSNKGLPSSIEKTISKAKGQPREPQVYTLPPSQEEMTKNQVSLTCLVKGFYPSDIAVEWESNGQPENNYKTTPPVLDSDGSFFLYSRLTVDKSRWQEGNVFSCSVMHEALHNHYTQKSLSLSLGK
light: DIQLTQSPSSLSASVGDRVTITCSVSSSISSNNLHWYQQKPGKAPKPWIYGTSNLASGVPSRFSGSGSGTDYTFTISSLQPEDIATYYCQQWSSYPYMYTFGQGTKVEIKRTVAAPSVFIFPPSDEQLKSGTASVVCLLNNFYPREAKVQWKVDNALQSGNSQESVTEQDSKDSTYSLSSTLTLSKADYEKHKVYACEVTHQGCSSPVTKSFNRGEC
modifications: Tap18Hr1 linker-drug on the introduced Cys 201 (EU numbering)
notes: as for B3
Regarding B6, the figures for the MFI in experiment [1] and in experiment [4] were 1000 MFI and 890 MFI, respectively.

B7: hLK26-S442C-IgG1-Tap18Hr1 (antibody, name in EU numbering)
heavy: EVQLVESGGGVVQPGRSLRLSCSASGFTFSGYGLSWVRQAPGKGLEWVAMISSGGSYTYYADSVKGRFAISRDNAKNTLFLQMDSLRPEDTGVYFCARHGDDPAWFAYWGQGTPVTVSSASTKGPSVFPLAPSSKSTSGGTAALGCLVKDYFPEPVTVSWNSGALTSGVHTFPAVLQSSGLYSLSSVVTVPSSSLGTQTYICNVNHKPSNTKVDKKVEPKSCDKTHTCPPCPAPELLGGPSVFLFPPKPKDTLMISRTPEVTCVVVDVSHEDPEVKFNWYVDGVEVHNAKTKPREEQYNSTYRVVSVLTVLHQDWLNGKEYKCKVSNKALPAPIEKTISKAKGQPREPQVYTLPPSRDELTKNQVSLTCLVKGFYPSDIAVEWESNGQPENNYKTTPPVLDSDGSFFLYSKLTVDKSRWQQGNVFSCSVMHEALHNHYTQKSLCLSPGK
light: DIQLTQSPSSLSASVGDRVTITCSVSSSISSNNLHWYQQKPGKAPKPWIYGTSNLASGVPSRFSGSGSGTDYTFTISSLQPEDIATYYCQQWSSYPYMYTFGQGTKVEIKRTVAAPSVFIFPPSDEQLKSGTASVVCLLNNFYPREAKVQWKVDNALQSGNSQESVTEQDSKDSTYSLSSTLTLSKADYEKHKVYACEVTHQGLSSPVTKSFNRGEC
modifications: Tap18Hr1 linker-drug on the introduced Cys 442 (EU numbering)
notes: Site-specific ADC
As to B7, the MFI was found to be 2080 MFI in experiment [1], 967 MFI in experiment [2], 1280 MFI in experiment [3] and 605 MFI in experiment [4].

B8: hLK26-T199C-IgG4p-Tap18Hr1 (antibody, name in EU numbering)
heavy: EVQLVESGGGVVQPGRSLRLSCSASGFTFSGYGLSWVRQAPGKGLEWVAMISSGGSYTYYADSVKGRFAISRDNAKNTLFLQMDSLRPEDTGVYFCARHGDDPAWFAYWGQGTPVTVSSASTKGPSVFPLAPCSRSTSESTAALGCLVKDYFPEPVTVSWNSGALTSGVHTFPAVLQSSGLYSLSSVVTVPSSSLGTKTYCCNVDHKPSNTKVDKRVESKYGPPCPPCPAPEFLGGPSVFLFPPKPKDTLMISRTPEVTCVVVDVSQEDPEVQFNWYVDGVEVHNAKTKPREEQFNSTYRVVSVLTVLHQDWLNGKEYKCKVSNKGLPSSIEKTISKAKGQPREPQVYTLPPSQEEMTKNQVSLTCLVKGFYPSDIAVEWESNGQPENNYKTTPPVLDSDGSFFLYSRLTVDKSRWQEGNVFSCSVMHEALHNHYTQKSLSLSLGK
light: DIQLTQSPSSLSASVGDRVTITCSVSSSISSNNLHWYQQKPGKAPKPWIYGTSNLASGVPSRFSGSGSGTDYTFTISSLQPEDIATYYCQQWSSYPYMYTFGQGTKVEIKRTVAAPSVFIFPPSDEQLKSGTASVVCLLNNFYPREAKVQWKVDNALQSGNSQESVTEQDSKDSTYSLSSTLTLSKADYEKHKVYACEVTHQGLSSPVTKSFNRGEC
modifications: Tap18Hr1 linker-drug on the introduced Cys 199 (EU numbering)
notes: Site-specific ADC
As to B8, the MFI in experiment [1] was found to be 966 MFI; in experiment [4] it was 898 MFI.
